Measured values taken from publication doi:10.1101/2020.07.19.210252.

biological target: FXR1-GST (Homo sapiens, UniProt P51114 1-621); experiment: EMSA
Sequence (P51114 whole entry): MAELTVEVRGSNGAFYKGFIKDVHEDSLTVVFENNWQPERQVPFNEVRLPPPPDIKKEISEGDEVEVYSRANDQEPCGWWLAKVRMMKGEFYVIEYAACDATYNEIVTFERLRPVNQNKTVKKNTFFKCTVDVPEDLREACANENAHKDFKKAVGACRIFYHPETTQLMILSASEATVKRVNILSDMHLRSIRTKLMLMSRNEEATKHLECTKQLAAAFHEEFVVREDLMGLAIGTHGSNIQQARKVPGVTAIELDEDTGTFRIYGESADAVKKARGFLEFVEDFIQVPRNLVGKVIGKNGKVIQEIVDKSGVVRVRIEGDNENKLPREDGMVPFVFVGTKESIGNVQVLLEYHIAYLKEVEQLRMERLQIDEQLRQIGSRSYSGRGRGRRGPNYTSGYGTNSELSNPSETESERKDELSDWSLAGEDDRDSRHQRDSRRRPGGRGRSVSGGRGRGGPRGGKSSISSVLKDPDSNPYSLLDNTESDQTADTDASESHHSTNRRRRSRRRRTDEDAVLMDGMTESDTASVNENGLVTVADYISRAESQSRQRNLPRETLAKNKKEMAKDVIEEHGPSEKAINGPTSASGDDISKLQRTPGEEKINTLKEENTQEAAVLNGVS

Binding result, binds:
UUUGUAUUUAAGAAU (ssRNA) [cMYC 3'UTR-ARE2]
UUGUGAUUUAUUUUG (ssRNA) [cMYC 3'UTR-ARE5]
GAAAGAUUUAGCCAU (ssRNA) [cMYC 3'UTR-ARE1]
UUUUUAUUUAAGUAC (ssRNA) [cMYC 3'UTR-ARE4]
